According to US20170362301A1 (Janssen / Centocor, published 2017):
Substitutions are numbered along the chain they refer to. In names and notes the source's numbering stands.

B1: P54AR4-83v2 L32C, NEM conjugate (designed binder)
chain: LPAPKNLVVSEVTEDSARLSWDDPWAFYESFCIQYQESEKVGEAIVLTVPGSERSYDLTGLKPGTEYTVSIYGVHNVYKDTNMRGLPLSAIFTT
modifications: NEM on Cys 32
notes: His-tagged
B2: P54AR4-83v2 T13C, NEM conjugate (designed binder)
chain: B1 chain with T13C, C32L
modifications: NEM on Cys 13
notes: His-tagged
B3: P54AR4-83v2 T93C, NEM conjugate (designed binder)
chain: B1 chain with C32L, T93C
modifications: NEM on Cys 93
notes: His-tagged
B4: P54AR4-83v2 T68C, NEM conjugate (designed binder)
chain: B1 chain with C32L, T68C
modifications: NEM on Cys 68
notes: His-tagged
B5: P54AR4-83v2 P24C, NEM conjugate (designed binder)
chain: B1 chain with P24C, C32L
modifications: NEM on Cys 24
notes: His-tagged
B6: P54AR4-83v2 N6C, NEM conjugate (designed binder)
chain: B1 chain with N6C, C32L
modifications: NEM on Cys 6
notes: His-tagged
B7: P54AR4-83v2 V74C, NEM conjugate (designed binder)
chain: B1 chain with C32L, V74C
modifications: NEM on Cys 74
notes: His-tagged
B8: P54AR4-83v2 V9C, NEM conjugate (designed binder)
chain: B1 chain with V9C, C32L
modifications: NEM on Cys 9
notes: His-tagged
B9: P54AR4-83v2 S55C, NEM conjugate (designed binder)
chain: B1 chain with C32L, S55C
modifications: NEM on Cys 55
notes: His-tagged
B10: P54AR4-83v2 V49C, NEM conjugate (designed binder)
chain: B1 chain with C32L, V49C
modifications: NEM on Cys 49
notes: His-tagged
B11: P54AR4-83v2 P2C, NEM conjugate (designed binder)
chain: B1 chain with P2C, C32L
modifications: NEM on Cys 2
notes: His-tagged
B12: P54AR4-83v2 L86C, NEM conjugate (designed binder)
chain: B1 chain with C32L, L86C
modifications: NEM on Cys 86
notes: His-tagged
B13: P54AR4-83v2 P87C, NEM conjugate (designed binder)
chain: B1 chain with C32L, P87C
modifications: NEM on Cys 87
notes: His-tagged
B14: P54AR4-83v2 P50C, NEM conjugate (designed binder)
chain: B1 chain with C32L, P50C
modifications: NEM on Cys 50
notes: His-tagged
B15: P54AR4-83v2 S89C, NEM conjugate (designed binder)
chain: B1 chain with C32L, S89C
modifications: NEM on Cys 89
notes: His-tagged
B16: P54AR4-83v2 M83C, NEM conjugate (designed binder)
chain: B1 chain with C32L, M83C
modifications: NEM on Cys 83
notes: His-tagged
B17: P54AR4-83v2 S52C, NEM conjugate (designed binder)
chain: B1 chain with C32L, S52C
modifications: NEM on Cys 52
notes: His-tagged
B18: P54AR4-83v2 P63C, NEM conjugate (designed binder)
chain: B1 chain with C32L, P63C
modifications: NEM on Cys 63
notes: His-tagged
B19: P54AR4-83v2 S70C, NEM conjugate (designed binder)
chain: B1 chain with C32L, S70C
modifications: NEM on Cys 70
notes: His-tagged
B20: P54AR4-83v2 T48C, NEM conjugate (designed binder)
chain: B1 chain with C32L, T48C
modifications: NEM on Cys 48
notes: His-tagged
B21: P54AR4-83v2 V12C, NEM conjugate (designed binder)
chain: B1 chain with V12C, C32L
modifications: NEM on Cys 12
notes: His-tagged
B22: P54AR4-83v2 N76C, NEM conjugate (designed binder)
chain: B1 chain with C32L, N76C
modifications: NEM on Cys 76
notes: His-tagged
B23: P54AR4-83v2 R54C, NEM conjugate (designed binder)
chain: B1 chain with C32L, R54C
modifications: NEM on Cys 54
notes: His-tagged
B24: P54AR4-83v2 L88C, NEM conjugate (designed binder)
chain: B1 chain with C32L, L88C
modifications: NEM on Cys 88
notes: His-tagged
B25: P54AR4-83v2 R84C, NEM conjugate (designed binder)
chain: B1 chain with C32L, R84C
modifications: NEM on Cys 84
notes: His-tagged
B26: P54AR4-83v2 N82C, NEM conjugate (designed binder)
chain: B1 chain with C32L, N82C
modifications: NEM on Cys 82
notes: His-tagged
B27: P54AR4-83v2 V46C, NEM conjugate (designed binder)
chain: B1 chain with C32L, V46C
modifications: NEM on Cys 46
notes: His-tagged
B28: P54AR4-83v2 Q34C, NEM conjugate (designed binder)
chain: B1 chain with C32L, Q34C
modifications: NEM on Cys 34
notes: His-tagged
B29: P54AR4-83v2 P4C, NEM conjugate (designed binder)
chain: B1 chain with P4C, C32L
modifications: NEM on Cys 4
notes: His-tagged
B30: P54AR4-83v2 V8C, NEM conjugate (designed binder)
chain: B1 chain with V8C, C32L
modifications: NEM on Cys 8
notes: His-tagged
B31: P54AR4-83v2 R18C, NEM conjugate (designed binder)
chain: B1 chain with R18C, C32L
modifications: NEM on Cys 18
notes: His-tagged
B32: P54AR4-83v2 S10C, NEM conjugate (designed binder)
chain: B1 chain with S10C, C32L
modifications: NEM on Cys 10
notes: His-tagged
B33: P54AR4-83v2 T81C, NEM conjugate (designed binder)
chain: B1 chain with C32L, T81C
modifications: NEM on Cys 81
notes: His-tagged
B34: P54AR4-83v2 V41C, NEM conjugate (designed binder)
chain: B1 chain with C32L, V41C
modifications: NEM on Cys 41
notes: His-tagged
B35: P54AR4-83v2 S20C, NEM conjugate (designed binder)
chain: B1 chain with S20C, C32L
modifications: NEM on Cys 20
notes: His-tagged
B36: P54AR4-83v2 L47C, NEM conjugate (designed binder)
chain: B1 chain with C32L, L47C
modifications: NEM on Cys 47
notes: His-tagged
B37: P54AR4-83v2 T59C, NEM conjugate (designed binder)
chain: B1 chain with C32L, T59C
modifications: NEM on Cys 59
notes: His-tagged
B38: P54AR4-83v2 S30C, NEM conjugate (designed binder)
chain: B1 chain with S30C, C32L
modifications: NEM on Cys 30
notes: His-tagged
B39: P54AR4-83v2 S16C, NEM conjugate (designed binder)
chain: B1 chain with S16C, C32L
modifications: NEM on Cys 16
notes: His-tagged
B40: P54AR4-83v2 S38C, NEM conjugate (designed binder)
chain: B1 chain with C32L, S38C
modifications: NEM on Cys 38
notes: His-tagged

Target: T1, EGFR (form in the assay not stated) (human, UniProt P00533 25-645, limits assumed)
Assay: ELISA, NEM conjugate 10 nM

| Binder | binding ratio vs parent P54AR4-83v2 [ratio] |
| --- | --- |
| B1 | 0.87 |
| B2 | 0.87 |
| B3 | 0.96 |
| B4 | 0.83 |
| B5 | 0.45 |
| B6 | 0.76 |
| B7 | 0.76 |
| B8 | 0.94 |
| B9 | 0 |
| B10 | 0.96 |
| B11 | 0 |
| B12 | 0.77 |
| B13 | 0.73 |
| B14 | 0.91 |
| B15 | 0.97 |
| B16 | 0.07 |
| B17 | 0.78 |
| B18 | 0.95 |
| B19 | 0.86 |
| B20 | 0.88 |

| Binder | binding ratio vs parent P54AR4-83v2 [ratio] |
| --- | --- |
| B21 | 0.87 |
| B22 | 0.75 |
| B23 | 0.89 |
| B24 | 0.95 |
| B25 | 0.91 |
| B26 | 0.56 |
| B27 | 0.61 |
| B28 | 0.89 |
| B29 | 0.02 |
| B30 | 0.96 |
| B31 | 0.86 |
| B32 | 0.83 |
| B33 | 0.5 |
| B34 | 0.92 |
| B35 | 0.81 |
| B36 | 0.92 |
| B37 | 0.83 |
| B38 | 0.9 |
| B39 | 0.88 |
| B40 | 0.8 |

Target: T1, EGFR (form in the assay not stated)
Assay: ELISA, NEM conjugate 100 nM

| Binder | binding ratio vs parent P54AR4-83v2 [ratio] |
| --- | --- |
| B1 | 1.01 |
| B2 | 1.04 |
| B3 | 1.05 |
| B4 | 1.04 |
| B5 | 0.85 |
| B6 | 1.01 |
| B7 | 1.01 |
| B8 | 1.03 |
| B9 | 0 |
| B10 | 1.01 |
| B11 | 0 |
| B12 | 0.96 |
| B13 | 0.93 |
| B14 | 1.05 |
| B15 | 1.02 |
| B16 | 0.04 |
| B17 | 1.03 |
| B18 | 1.02 |
| B19 | 1.01 |
| B20 | 1 |

| Binder | binding ratio vs parent P54AR4-83v2 [ratio] |
| --- | --- |
| B21 | 1.06 |
| B22 | 0.97 |
| B23 | 1.01 |
| B24 | 1.03 |
| B25 | 1.04 |
| B26 | 0.97 |
| B27 | 1.01 |
| B28 | 1.03 |
| B29 | 0.02 |
| B30 | 1.03 |
| B31 | 1.05 |
| B32 | 1.07 |
| B33 | 0.9 |
| B34 | 0.99 |
| B35 | 1.05 |
| B36 | 1.02 |
| B37 | 1.04 |
| B38 | 1.02 |
| B39 | 1.05 |
| B40 | 0.93 |

Target: T1, EGFR (form in the assay not stated)
Assay: ELISA, NEM conjugate 500 nM

| Binder | binding ratio vs parent P54AR4-83v2 [ratio] |
| --- | --- |
| B1 | 0.91 |
| B2 | 0.9 |
| B3 | 1.04 |
| B4 | 0.95 |
| B5 | 0.83 |
| B6 | 0.89 |
| B7 | 0.95 |
| B8 | 0.93 |
| B9 | 0.11 |
| B10 | 0.98 |
| B11 | 0.01 |
| B12 | 0.92 |
| B13 | 0.91 |
| B14 | 0.97 |
| B15 | 1.04 |
| B16 | 0.24 |
| B17 | 0.93 |
| B18 | 0.92 |
| B19 | 0.93 |
| B20 | 0.93 |

| Binder | binding ratio vs parent P54AR4-83v2 [ratio] |
| --- | --- |
| B21 | 0.93 |
| B22 | 0.91 |
| B23 | 0.93 |
| B24 | 0.97 |
| B25 | 0.98 |
| B26 | 0.96 |
| B27 | 0.9 |
| B28 | 0.94 |
| B29 | 0.12 |
| B30 | 0.9 |
| B31 | 0.94 |
| B32 | 0.96 |
| B33 | 1.02 |
| B34 | 0.95 |
| B35 | 0.91 |
| B36 | 0.91 |
| B37 | 0.93 |
| B38 | 0.9 |
| B39 | 0.63 |
| B40 | 0.82 |
